For series [1], the system named is plasma PTH (parathyroid hormone) levels. Kind of series: In vivo screen, PTH-lowering effects in normal rats (plasma PTH by ELISA). The arrangement: species or system rat. The method, then:
PEG-Cinacalcet calcimmetic effects were studied in PTH (parathyroid hormone)-lowering experiments in normal rats. Male SD rats (˜350 g) were IV dosed with different compounds at 1 mg/kg or orally (“PO”) cinacalcet at 10 mg/kg. Plasma samples were collected and prepared at different timepoints (up to 72 hours) after drug administration. The plasma PTH levels were quantified by ELISA.
(In an ELISA, binding on a coated surface is turned into a signal by an enzyme label.)

The conditions of series [2]: rat, in vivo, 1 mg/kg; for AUCall / Clearance: iv.
Protocol: (§1) Compound (15), Compound (20), Compound (16), Compound (21), Compound (24), Compound (25), Compound (28) and Compound (29), prepared in accordance with Examples, 5, 7, 6, 8, 9, 10, 11 and 12 respectively, were separately administered intravenously to four male rats to provide a cinacalcet equivalent dose of 1 mg/kg. Parent compound cinacalcet prepared in DMSO at 1 mg/kg was separately administrated intravenously to four male rats. For these cohorts, blood was collected at the following time points: 0 (predose), 2 minutes, 10 minutes, 1 hour, 2 hours, 4 hours, 8 hours, 24 hours, 48 hours and 72 hours following administration.
A short description of series [3]: Hydrolysis of compounds in pH 7.4 PBS buffer at 37° C. (HPLC). It counts as physicochemical. The method, then: The solution was placed into ten different HPLC vials and the HPLC vials were put into a 37° C. incubator. The samples were analyzed by HPLC at different timepoints. When hydrolysis occurred, HPLC confirmed that cinacalcet was released unaltered.
For series [4] the following is noted: dog, in vivo.
Protocol: (§2) Briefly, cinacalcet hydrochloride was administered orally to three male beagle dogs to provide a cinacalcet equivalent dose of 2.0 mg/kg. […] For both the cohorts, blood was collected at the following time points: 0 (predose); 10 min, 1, 2, 4, 8, 24, 48, 72, 120 and 144 h.
A short description of series [5]: Hydrolysis / pharmacokinetics in an in vivo dog study. Particulars: male, beagle, plasma, po, 10 mg/kg.
Protocol: as §2
Series [6] can be described thus: Hydrolysis / pharmacokinetics in an in vivo rat study (plasma concentration-time profiles). Particulars: male, po, 10 mg/kg.
Protocol: as §1
In a further series the target is CYP2D6 (Homo sapiens, UniProt P10635). Particulars: background statement; cited from earlier work.
The test system of series [7] is plasma PTH (parathyroid hormone) levels. The series is described as follows: In vivo screen, rat chronic renal insufficiency (CRI) model, 5/6 nephrectomy. To be noted: 5/6 Nx rats, 6-8 weeks post surgery.
Description: The approach set forth in Example 14 is repeated except rats were surgically modified to mimic chronic renal insufficiency through the total removal of one kidney and ⅔ of the other kidney (a 5/6 nephrectomy or “5/6Nx”). […] Parathyroid hormone levels in normal rats are around 100 pg/ml and in 5/6 Nx rats they increase to 500-1000 pg/ml.

Read-outs that look alike come from different tables or passages of the source.

Sequence of CYP2D6 (P10635 whole entry): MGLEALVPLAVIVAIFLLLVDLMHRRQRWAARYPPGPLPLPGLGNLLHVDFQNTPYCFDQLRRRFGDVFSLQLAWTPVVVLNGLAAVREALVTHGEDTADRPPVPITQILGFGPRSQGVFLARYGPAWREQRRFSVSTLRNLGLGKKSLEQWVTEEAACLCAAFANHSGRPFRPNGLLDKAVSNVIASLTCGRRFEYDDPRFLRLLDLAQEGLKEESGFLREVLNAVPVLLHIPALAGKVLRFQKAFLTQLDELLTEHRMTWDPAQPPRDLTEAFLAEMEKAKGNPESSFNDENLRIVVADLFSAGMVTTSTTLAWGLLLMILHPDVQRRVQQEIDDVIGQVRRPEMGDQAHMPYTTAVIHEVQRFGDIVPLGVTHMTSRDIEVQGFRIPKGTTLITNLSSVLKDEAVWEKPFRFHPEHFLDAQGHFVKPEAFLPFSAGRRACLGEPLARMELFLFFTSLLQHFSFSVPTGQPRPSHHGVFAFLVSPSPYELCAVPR

In the case of “mPEG10k-L-valine-acyloxymethyl-carbamate-cinacalcet [Compound (24)]”, in series [1] (IV, 1 mg/kg), the “PTH-lowering effect (in words)” value is listed as “variable PTH-lowering effects” and the “time at which animal PTH levels return to baseline” value (“time … to baseline” below) was roughly 24 h. Besides, in series [2], the “cinacalcet release after intravenous administration (in words)” value (“cinacalcet release” for short) is listed as “relatively significant amounts of cinacalcet release” and the “time for which release of cinacalcet continues following intravenous administration” value is 8 to 12 h. Further, the “t1/2 in PBS” value in series [3] is roughly 317 h.

Take “Four-arm-PEG20k-L-leucine-acyloxymethyl-carbamate-cinacalcet [Compound (21)]”: the “PTH-lowering effect (in words)” value in series [1] (IV, 1 mg/kg) is “significant PTH-lowering effects”. Moreover, in series [2], the AUCall is 5730 ng·min/mL and the Clearance was found to be 206 mL/min/kg.

In the case of “Four-arm-PEG20k-D-valine-acyloxymethyl-carbamate-cinacalcet [Compound (29)]”, in series [1] (IV, 1 mg/kg), the “PTH-lowering effect (in words)” value is “variable PTH-lowering effects” and the “time … to baseline” value was roughly 24 h. Further, in series [2], the “cinacalcet release” value is on record as “relatively significant amounts of cinacalcet release” and the “time for which release of cinacalcet continues following intravenous administration” value is 8 to 12 h.

On to “Four-arm-PEG30k-L-leucine-acyloxymethyl-carbamate-cinacalcet [Compound (31)]”, for which, in series [4], the “Cmax versus cinacalcet (in words)” value was “blunted” and the “half-life versus cinacalcet (in words)” value is “increased”. Further, the “time up to which therapeutically relevant levels of cinacalcet are released” value in series [4] (iv) is “up to 72 hours”. Moreover, in series [4] (iv, 1 mg/kg), the AUCall amounted to 176 ng·h/mL, the Clearance was 43.33 mL/min/kg, the T1/2 turned out to be 0.432 h and the “Vz(F)” value is 97.2 L/kg.

For the compound “Four-arm-PEG20k-L-valine-acyloxymethyl-carbamate-cinacalcet [Compound (25)]”, in series [1] (IV, 1 mg/kg), the “PTH-lowering effect (in words)” value is on record as “variable PTH-lowering effects” and the “time … to baseline” value was roughly 24 h. Moreover, in series [2], the “cinacalcet release” value was “relatively significant amounts of cinacalcet release” and the “time for which release of cinacalcet continues following intravenous administration” value is 8 to 12 h.

As to `C[C@@H](NCCCc1cccc(C(F)(F)F)c1)c1cccc2ccccc12` [cinacalcet], in series [5], the AUC stood at 17.8 ng·h/mL, the concentration peaked (Cmax) at 6.01 ng/mL, the Vd/F came to 294 L/kg and the half-life is 1.77 h. Moreover, the “PTH-lowering effect lasts up to” value in series [1] (PO, 10 mg/kg) was roughly 12 h. In series [6], the AUC is 690 ng·h/mL, the Cmax worked out at 97.4 ng/mL and the half-life worked out at 2.98 h. Moreover, on CYP2D6, the CYP2D6 inhibition result is on record as “inhibitor of CYP2D6”.

“mPEG10k-L-isoleucine-acyloxymethyl-carbamate-cinacalcet [(36)]”: the “t1/2 in PBS” value in series [3] was roughly 470 h.

“mPEG10k-D-valine-acyloxymethyl-carbamate-cinacalcet [Compound (28)]”: in series [1] (IV, 1 mg/kg), the “PTH-lowering effect (in words)” value was “variable PTH-lowering effects” and the “time … to baseline” value is roughly 24 h. Moreover, in series [2], the “cinacalcet release” value is reported as “relatively significant amounts of cinacalcet release” and the “time for which release of cinacalcet continues following intravenous administration” value is 8 to 12 h. The “t1/2 in PBS” value in series [3] is roughly 208 h.

As to “Four-arm-PEG20k-glycine-amide-cinacalcet [Compound (16)]”, the “reduction of PTH levels (in words)” value in series [7] was “PTH levels are not reduced as significantly as Compounds (25), (28), and (29)”.

Consider “mPEG10k-L-leucine-acyloxymethyl-carbamate-cinacalcet [Compound (20)]”, for which, in series [1] (IV, 1 mg/kg), the “PTH-lowering effect (in words)” value is “significant PTH-lowering effects” and the “PTH-lowering effect lasts up to” value was 24 to 48 h. In series [2], this compound came in with an AUCall of 11200 ng·min/mL and a Clearance of 100 mL/min/kg. In addition, the “t1/2 in PBS” value in series [3] was roughly 126 h.

For orientation: AUC means the area under the concentration-time curve, a measure of exposure. Read a high AUC as more exposure. What is called Cmax is the maximum level reached in the sampled fluid or tissue. A word on the Vd/F: it is the apparent distribution volume after extravascular dosing. As usually defined, the half-life is the time needed for the level to fall by half in the phase considered.

Source of the values: patent publication US8722732B2, “Oligomer-calcimimetic conjugates and related compounds” (Nektar Therapeutics, priority 2009, dated 2014).
